Measurements taken from paper PMC2686680, “Chibby forms a homodimer through a heptad repeat of leucine residues in its C-terminal coiled-coil motif” (BMC Molecular Biology, 2009).

Molecular target: the molecule itself
Test: SEC; His-Cby purified from stable HEK293T on Superdex 75 FPLC, 20 mM Tris-HCl pH 8.0, 1.0 M NaCl, 1 mM EDTA, 2 mM DTT, 2 mM betaine-HCl, 0.02% Triton X-100, 5% glycerol; fractions blotted with anti-Cby

B1: His-tagged Cby wild type (natural protein, human, UniProt Q9Y3M2 1-126, looked up)
chain: MPFFGNTFSPKKTPPRKSASLSNLHSLDRSTREVELGLEYGSPTMNLAGQSLKFENGQWIAETGVSGGVDRREVQRLRRRNQQLEEENNLLRLKVDILLDMLSESTAESHLMEKELDELRISRKRK
notes: Chibby (Cby), human, 126 amino acids; Cby cDNA in pcDNA4/HisMax A; the vector pcDNA4/HisMax A probably adds further N-terminal residues besides the His tag (surmise); also called His-Cby; His-CbyWT; source: transiently transfected for cross-linking), purified (nickel beads / Ni-NTA)
  stoichiometry N: 2
